Test system: MS2 coat protein
Assay: apparent KD of MS2 coat protein; designed switch direction (-1 OFF switch, 1 ON switch): 1; higher = weaker reporter binding
In short: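 Three titration conditions were used: no input, 200 uM small-molecule ligand, and an oligonucleotide input. In each, SNAP-549-labelled MS2 coat protein was raised from 0.7 or 1.5 nM, doubling, to 3 µM over designed RNA switches transcribed on Illumina chips by stalled E. coli RNA polymerase. Curve fits of normalised cluster fluorescence gave values whose per-design median over clusters is the apparent KD.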

[1] = input ligand: microRNA oligo, concentration not stated
[2] = Eterna round: R95, input ligand: FMN 200 uM
[3] = Eterna round: R95, input ligand: microRNA oligo, concentration not stated
[4] = Eterna round: R95, input ligand: none

Sequence	apparent KD of MS2 coat protein (input ligand: FMN 200 uM) [µM]	apparent KD of MS2 coat protein [1] [µM]	apparent KD of MS2 coat protein (input ligand: none) [µM]	apparent KD of MS2 coat protein [2] [µM]	apparent KD of MS2 coat protein [3] [µM]	apparent KD of MS2 coat protein [4] [µM]
GGUAUCGACGCAGGAUAUGCUAUCCUUUGGGUAGCAGAAGGGUGGACAUGAGGAUCACCCAUGUGGGUGCCAGGGCGUGAGCCC [JL SSNG1 1.83] (Eterna round: R96, puzzle: Same State NG 1)	0.283	0.0128	0.44			
GGUCCAGCCUGAGCUGGACAAAAGCAUGUACAUGAGGAUCACCCAUGUCAUGUACAAGCUUUUUGCUCGUCUAAAUG [Mat - hsa-mir-208a - 93] (puzzle: Sensor for hsa-mir-208a)				0.802	0.0217	0.758
GGUCCAGCCUGAGCUGGACAAAAGCAUGUACAUGAGGAUCACCCAUGUCAUGUACAAGCUUUUUGCUCGUCUUAAAA [Mat - Sensor - JL mod - D87] (Eterna round: R96, puzzle: Sensor for hsa-mir-208a)	0.586	0.0142	0.573			
GGUCCAGCCUGAGCUGGACAAAAGCAUGUACAUGAGGAUCACCCAUGUCAUGUACAAGCUUUUUGUUCGUCUUAAAA [JL mod - D87 - 13] (puzzle: Sensor for hsa-mir-208a)				0.42	0.0156	0.344
GGUCCAGCCUGAGCUGGACUAUAGCAUGUACAUGAGGAUCACCCAUGUCAUGUACAAGUAUGUUGUUUGUCUUGAAA [Sensorship 6 - Jieux - Sensor for hsa-mir-208a] (puzzle: Sensor for hsa-mir-208a)				0.0214	0.0153	0.0202
GGUCCAGCCUGAGCUGGACUAUAGUAUGUACAUGAGGAUCACCCAUGUCAUGUACAAGUAUGUUGUUUGUCUUGAAA [Sensorship 5 - Jieux - Sensor for hsa-mir-208a] (puzzle: Sensor for hsa-mir-208a)				0.0723	0.0654	0.103
GGUGGGUUACUACCCACACAUGAGGAUCACCCAUGUAUUGGGAAGGAUAUGGUACCUAUUUGGUACCAGAAGGUCCUGAAGGUG [SS-NG3-LRO16] (Eterna round: R96, puzzle: Same State NG 3)	0.638	0.545	1.17			
GGUUUAGCCAGGCGCAAUUGCGCCUGAAAACAUGAGGAUCACCCAUGUUUGGGACAAGCUUUGCUCCUCGUCUUGCA [Edreisza] (puzzle: Sensor for hsa-mir-208a)				0.243	0.0419	0.33
GUAAAACAUGAGGAUCACCCAUGUAAUAAUAUGGGAGGAUAUCAGAUUUAAUUUAAUUUAUGAGAAGGCCUAAAUG [Mat - Same State 1 - Mod of Eli - D59] (puzzle: Same State 1)				0.0574	0.181	0.427
GUAACAUGACGAGGAUAUGGUACAUGAGGAUCACCCAUGUAUGUACCACGACGCGUACGUCGAAUCCAGAAGGCGUCGUGAAUG [Mat - Same State NG 2 - JL mod - D21] (Eterna round: R96, puzzle: Same State NG 2)	0.0265	0.0685	0.0701			
GUACGUGCAACGUAGGAUAUCCACGACACGACAUGAGGAUCACCCAUGUCAAGGCUUAAAAGUCGGGAGAAGGGCGAACCACGGA [Xereenge] (puzzle: Same State 2)				0.0145	0.0159	0.0192
GUAGAAGAACUAGAGGAUAUCCGAGUGGUAACAUGAGGAUCACCCAUGUGAUGAAAGGAACAUGAGGAGAAGGCUAGAAUGAAUG [Mat - Same State 2 - Mod of JL - D83] (puzzle: Same State 2)				0.0247	0.0457	0.0792
GUAGAAUAACUAGAGGAUAUCCGAGUGGUAACAUGAGGAUCACCCAUGUGAUGAAAGGAACAUGAGGAGAAGGCUAGAAUGAAUG [Mat - Same State 2 - Mod of JL - D84] (puzzle: Same State 2)				0.0234	0.0384	0.0883
GUAGAUGUAGAGGAGGAUAUUCAAUAGAGAACAUGAGGAUCACCCAUGUAAGAGAGAGAUGAUGGGAAGAAGGCUUAGAGAGAUG [Altered State 2-1 - Jieux - Same State 2] (puzzle: Same State 2)				0.0722	0.0766	0.0948
GUAGCAUACCGAGGAUAUUCAUAUAAUACAUGAGGAUCACCCAUGUUAUAUAGGCGAAAGCCUUGGGAGAAGGCGGAAUGCUAC [Xeonanis - 20 Mod65] (Eterna round: R96, puzzle: Same State NG 2)		0.0109				
GUAGCAUACCGAGGAUAUUCAUAUUAAAUACAUGAGGAUCACCCAUGUAAGGCCAAAAGGCCUUGGGAGAAGGCGGAAUGCUAC [Xeonanis - 20 Mod3] (Eterna round: R96, puzzle: Same State NG 2)	0.0207	0.0325	0.0673			
GUAGCAUACCGAGGAUAUUCAUAUUAAAUUACAUGAGGAUCACCCAUGUAGGCCAAAAGGCCUUGGGAGAAGGCGGAAUGCUAC [Xeonanis - 20 Mod1] (Eterna round: R96, puzzle: Same State NG 2)	0.0188	0.0893	0.102			
GUAGCAUACCGAGGAUAUUCAUUACAUGAGGAUCACCCAUGUUAAUUAUAGGCCAAAAGGCCUUGGGAGAAGGCGGAAUGCUAC [Xeonanis - 20 Mod13] (Eterna round: R96, puzzle: Same State NG 2)	0.0122	0.00828	0.0133			
GUAGGACAUGAGGAUCACCCAUGUAGGAGGGAACGAGGAUAUGUGAUUAGCGAGGAGAGGACAGAAGGCGUGGUAG [JR_SS1_Sub025] (puzzle: Same State 1)				0.0187	0.0183	0.0213
GUAUAACAUGAGGAUCACCCAUGUCAUCUAAGUCGAGGAUAUGGGAAUUAAUUAAUUAAACCAGAAGGCGAAAAUG [Mat - Same State 1 - D93] (puzzle: Same State 1)				0.0482	0.291	0.3
